Laboratory results reported in US20230295284A1 (MIT, published 2023).

B1: LMJ1.2C (VHH)
VHH: QVQLVETGGGLVQAGGSLRLSCAASGSTFSHSAGGWYRQAPEKQRELVAGIRSDGNINYADSVKDRFTISRDNASNTMYLQMNNLKPEDTAVYVCNIRGSYGNTYYSRWGQGTQVTVSS
modifications: sortase-tagged with biotin in the Western blots ; Purified by a his-tag for BLI and sortase-tagged with biotin in the Western blots. The tag letters are not stated for the free nanobody, so they are left out.
notes: First round of yeast display; Expressed in E. coli, his-tag purified
B2: LMJ1.2G (VHH)
VHH: QVQLVETGGGLVQAGGSLRLSCAASGSTFSHSAGGWYRQAPEKQRELVAGIGSDGNINYADSVKDRFTISRDNASNTMYLQMNNLKPEDTAVYVCNIRGSYGNTYYSRWGQGTQVTVSS
modifications: sortase-tagged with biotin in the Western blots ; Purified by a his-tag for BLI and sortase-tagged with biotin in the Western blots. The tag letters are not stated for the free nanobody, so they are left out.
notes: as for B1
B3: LMJ1.3J (VHH)
VHH: QVQLVGTGGGLVQAGGSLRLSCAASGSTFSHSAGGWYRQAPEKQRELVAGISSAGNINYADSVKDRFTISRDNASNTMYLQMNNLKPEDTAVYVCNIRGSYGNTYYSRWGQGTQVTVSS
modifications: sortase-tagged with biotin in the Western blots ; Purified by a his-tag for BLI and sortase-tagged with biotin in the Western blots. The tag letters are not stated for the free nanobody, so they are left out.
notes: as for B1
B4: LMJ2.4C (VHH)
VHH: QVQLVEAGGGLVQAGGSLRLSCAASGSTFSHSAGGWYRQAPEKQRELVAGIRSDGNINYADSVKDRFTISRDNASNTMYLQMNNLKPEDTAVYVCNIRGSYGNTYYSRWGQGIQVTVSS
modifications: sortase-tagged with biotin in the Western blots ; Purified by a his-tag for BLI and sortase-tagged with biotin in the Western blots. The tag letters are not stated for the free nanobody, so they are left out.
notes: Second round of yeast display; Expressed in E. coli, his-tag purified
B5: LMJ2.5C (VHH)
VHH: QVQLVETGGGLVQAGGSLRLSCAASGSTFSHSAGGWYRQAPEKQRELVAGVRSDGNINYADSVKDRFTISRDNASNTMYLQMNNLKPEDTAVYVCNIRGSYGNTYYSRWGQGIQVTVSS
modifications: sortase-tagged with biotin in the Western blots ; Purified by a his-tag for BLI and sortase-tagged with biotin in the Western blots. The tag letters are not stated for the free nanobody, so they are left out.
notes: as for B4
B6: LMJ2.5G (VHH)
VHH: QVQLVETEGGLVQAGGSLRLSCAASGSTFSHSAGGWYRQAPEKQRELVAGIRSDGNINYADSVKDRFTISRDNASNTMYLQMNNLKPEDTAVYVCNIRGSYGNTYYSRWGQGTQVTVSS
modifications: sortase-tagged with biotin in the Western blots ; Western blots used the nanobody sortase-tagged with biotin at a terminus. The BLI material was his-tag purified. Tag letters are not stated for the stand-alone nanobody and are left out.
notes: as for B4
B7: LMJ2.5H (VHH)
VHH: QVQLVETGGGLVQAGGSLRLSCAVSGSTFSHSAGGWYRQAPEKQRELVAGIRSDGNINYADSVKDRFTISRDNASNTMYLQMNNLKPEDTAVYVCNIRGSYGNTYYSRWGQGTQVTVSS
modifications: sortase-tagged with biotin in the Western blots ; Western blots used the nanobody sortase-tagged with biotin at a terminus. The BLI material was his-tag purified. Tag letters are not stated for the stand-alone nanobody and are left out.
notes: as for B4
B8: LMJ2.5I (VHH)
VHH: RVQLVETGGGLVQAGGSLRLSCAVSGSTFSHSAGGWYRQAPEKQRELVAGIRSDGNINYADSVKDRFTISRDNASNTMYLQMNNLKPEDTAVYVCNIRGSYGNTYYSRWGQGAQVTVSS
modifications: sortase-tagged with biotin in the Western blots ; Purified by a his-tag for BLI and sortase-tagged with biotin in the Western blots. The tag letters are not stated for the free nanobody, so they are left out.
notes: as for B4
B9: LMJ2.5J (VHH)
VHH: QVQLVETRGGLVQAGGSLRLSCAVSGSTFSHSAGGWYRQAPEKQRELVAGIGSAGNINYADSVKDRFTISRDNASNTMYLQMNNLKPEDTAVYVCNIRGSYGNTYYSRWGQGTQVTVSS
modifications: sortase-tagged with biotin in the Western blots ; Western blots used the nanobody sortase-tagged with biotin at a terminus. The BLI material was his-tag purified. Tag letters are not stated for the stand-alone nanobody and are left out.
notes: as for B4
B10: LMJ2.6A (VHH)
VHH: RVQLVETGGGLVQAGGSLRLSCAVSGRTFSHSAGGWYRQAPEKQRELVAGIRSDGNINYADSVKDRFTISRDNASNTMYLQMNNLKPGDTAVYVCNIRGSYGNTYYSRWGQGTQVTVSS
modifications: sortase-tagged with biotin in the Western blots ; Purified by a his-tag for BLI and sortase-tagged with biotin in the Western blots. The tag letters are not stated for the free nanobody, so they are left out.
notes: as for B4

Biological target: human plasma fibronectin (human, UniProt P02751-8 32-2296, limits assumed)
Sequence (P02751 other isoform, or with tags, fused parts or gaps limits assumed): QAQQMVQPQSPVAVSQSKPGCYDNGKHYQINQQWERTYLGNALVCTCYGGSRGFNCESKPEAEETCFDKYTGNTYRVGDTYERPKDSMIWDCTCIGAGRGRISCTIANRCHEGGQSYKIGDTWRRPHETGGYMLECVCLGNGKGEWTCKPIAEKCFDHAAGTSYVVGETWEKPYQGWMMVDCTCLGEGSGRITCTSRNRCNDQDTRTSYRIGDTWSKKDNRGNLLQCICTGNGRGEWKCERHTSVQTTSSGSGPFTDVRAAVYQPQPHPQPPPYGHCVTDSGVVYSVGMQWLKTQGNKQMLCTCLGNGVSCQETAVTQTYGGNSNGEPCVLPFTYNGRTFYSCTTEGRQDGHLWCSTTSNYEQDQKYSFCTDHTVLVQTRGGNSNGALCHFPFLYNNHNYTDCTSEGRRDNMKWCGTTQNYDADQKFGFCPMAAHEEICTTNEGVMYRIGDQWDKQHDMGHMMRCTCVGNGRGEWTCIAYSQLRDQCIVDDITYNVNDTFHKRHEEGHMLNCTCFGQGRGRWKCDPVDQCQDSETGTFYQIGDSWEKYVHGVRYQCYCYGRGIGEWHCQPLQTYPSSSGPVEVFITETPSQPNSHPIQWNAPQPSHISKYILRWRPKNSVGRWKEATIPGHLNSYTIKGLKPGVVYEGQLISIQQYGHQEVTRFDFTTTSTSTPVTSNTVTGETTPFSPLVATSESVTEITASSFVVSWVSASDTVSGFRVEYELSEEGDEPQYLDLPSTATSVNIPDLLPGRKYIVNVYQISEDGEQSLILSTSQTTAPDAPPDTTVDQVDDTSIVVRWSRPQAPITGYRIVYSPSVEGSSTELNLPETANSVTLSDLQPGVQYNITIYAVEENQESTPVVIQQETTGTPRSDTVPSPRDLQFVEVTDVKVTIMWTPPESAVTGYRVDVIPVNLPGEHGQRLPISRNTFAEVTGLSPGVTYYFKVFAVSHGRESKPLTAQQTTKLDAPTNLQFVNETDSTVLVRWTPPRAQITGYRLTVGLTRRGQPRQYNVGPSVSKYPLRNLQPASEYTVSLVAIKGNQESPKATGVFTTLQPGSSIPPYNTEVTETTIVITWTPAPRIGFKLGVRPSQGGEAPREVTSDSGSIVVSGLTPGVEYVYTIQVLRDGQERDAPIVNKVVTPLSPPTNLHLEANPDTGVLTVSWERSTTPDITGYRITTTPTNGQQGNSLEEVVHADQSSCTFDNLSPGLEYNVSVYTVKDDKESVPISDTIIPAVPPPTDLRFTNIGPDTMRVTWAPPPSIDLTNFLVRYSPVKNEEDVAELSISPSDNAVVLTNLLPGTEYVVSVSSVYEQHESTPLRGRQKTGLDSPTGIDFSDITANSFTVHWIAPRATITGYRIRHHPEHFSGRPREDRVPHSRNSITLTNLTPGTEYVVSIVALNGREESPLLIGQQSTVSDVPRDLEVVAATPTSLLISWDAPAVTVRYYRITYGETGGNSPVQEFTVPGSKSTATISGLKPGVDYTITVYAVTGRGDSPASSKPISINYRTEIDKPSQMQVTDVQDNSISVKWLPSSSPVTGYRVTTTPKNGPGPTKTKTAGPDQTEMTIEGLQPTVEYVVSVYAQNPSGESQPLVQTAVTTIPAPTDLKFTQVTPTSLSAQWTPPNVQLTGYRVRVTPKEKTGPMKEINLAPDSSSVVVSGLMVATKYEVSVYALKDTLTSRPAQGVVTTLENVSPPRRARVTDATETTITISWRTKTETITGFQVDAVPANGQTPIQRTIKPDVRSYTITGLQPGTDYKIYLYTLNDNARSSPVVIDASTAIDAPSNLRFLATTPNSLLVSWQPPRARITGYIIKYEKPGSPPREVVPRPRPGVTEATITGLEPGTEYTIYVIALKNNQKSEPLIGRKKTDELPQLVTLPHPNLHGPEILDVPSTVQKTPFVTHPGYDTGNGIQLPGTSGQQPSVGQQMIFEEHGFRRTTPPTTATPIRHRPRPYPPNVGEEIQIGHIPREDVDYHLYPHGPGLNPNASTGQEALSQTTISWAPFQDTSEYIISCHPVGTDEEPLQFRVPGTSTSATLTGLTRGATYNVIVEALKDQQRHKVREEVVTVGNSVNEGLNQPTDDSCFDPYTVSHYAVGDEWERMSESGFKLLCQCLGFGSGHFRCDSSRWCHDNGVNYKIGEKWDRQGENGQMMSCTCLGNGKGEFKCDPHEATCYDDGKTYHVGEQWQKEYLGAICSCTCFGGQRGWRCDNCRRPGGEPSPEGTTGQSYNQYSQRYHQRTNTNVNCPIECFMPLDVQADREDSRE
Assay: Western blot, biotin-tagged nanobody

Binding result, no binding:
B1
B2
B3
B4
B5
B6
B7
B8
B9
B10
